Patent publication US20120184488A1, “INSULIN ANALOGUES OF ENHANCED RECEPTOR-BINDING SPECIFICITY” (CASE WESTERN RESERVE UNIVERSITY, priority 2009, published 2012)
One block for each substance: values may come before it.

What was measured:
[1] = target: insulin receptor, isoform B (human) (UniProt P06213); assay: competitive displacement, antibody-capture microtiter plate, IR isoform B
[2] = target: Type I insulin-like growth factor receptor (UniProt P08069); assay: competitive displacement of 125I-IGF-1, antibody-capture microtiter plate, IGFR
[3] = target: insulin receptor, isoform B (human) (UniProt P06213); assay: competitive displacement of 125I-insulin, antibody-capture microtiter plate, IR isoform B
IR = IR (Homo sapiens, UniProt P06213); conditions: relative to human insulin; cited from earlier work

Ala^A4-His^A8-DKP-insulin (ligand), sequence (chain): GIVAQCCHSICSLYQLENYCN
Ala^A4-His^A8-DKP-insulin (ligand), sequence (chain): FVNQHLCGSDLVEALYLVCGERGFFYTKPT
His^A4-His^A8-His^B1-insulin (ligand), sequence (chain): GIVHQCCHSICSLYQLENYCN
His^A4-His^A8-His^B1-insulin (ligand), sequence (chain): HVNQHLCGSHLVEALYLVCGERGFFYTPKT

relative affinity for IR (percent of human insulin) [1]: 384%
Substance: Ala^A4-His^A8-DKP-insulin (ligand)

relative affinity for IGFR (percent of IGF-I) [2]: 0.13%
relative affinity for IR (percent of human insulin) [3]: 91%
Substance: Dab^A8-insulin (ligand)

relative affinity for IR (percent of human insulin) [1]: 125%
Substance: His^A4-His^A8-His^B1-insulin (ligand)

Substance: insulin Detemir®
affinity for IR / receptor binding (IR): decreased affinity
